Data on 5 molecules can be found in patent publication US20210032365A1 (Chugai, published 2021).

By Kd is commonly meant the equilibrium constant for the complex coming apart. As a reminder, the koff is a measure of how fast the partners let go of each other. As usually defined, the kon is the rate constant with which the complex forms.

The target in assay [1] is T1, human C1s (human, UniProt P09871 16-688).
T1 construct: Analyte in the Biacore assays; also called hC1s; serum-derived human C1s (CompTech)
T1 sequence: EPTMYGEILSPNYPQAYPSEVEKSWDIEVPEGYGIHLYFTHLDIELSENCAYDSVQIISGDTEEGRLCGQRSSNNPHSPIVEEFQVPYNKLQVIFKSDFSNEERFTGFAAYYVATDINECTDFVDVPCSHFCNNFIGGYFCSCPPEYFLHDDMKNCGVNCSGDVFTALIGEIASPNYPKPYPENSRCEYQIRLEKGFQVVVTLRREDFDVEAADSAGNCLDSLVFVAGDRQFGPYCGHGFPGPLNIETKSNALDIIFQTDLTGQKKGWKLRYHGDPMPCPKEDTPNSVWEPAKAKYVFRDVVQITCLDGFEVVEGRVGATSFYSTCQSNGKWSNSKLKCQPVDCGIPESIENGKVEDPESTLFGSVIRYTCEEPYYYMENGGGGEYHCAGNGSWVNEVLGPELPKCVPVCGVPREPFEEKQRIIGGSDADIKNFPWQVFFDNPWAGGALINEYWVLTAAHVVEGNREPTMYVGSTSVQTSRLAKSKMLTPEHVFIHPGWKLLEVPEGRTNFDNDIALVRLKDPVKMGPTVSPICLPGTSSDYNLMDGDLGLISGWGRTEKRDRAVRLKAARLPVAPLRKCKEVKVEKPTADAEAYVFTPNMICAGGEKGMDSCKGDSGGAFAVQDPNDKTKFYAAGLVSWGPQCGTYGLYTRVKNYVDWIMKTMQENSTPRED
The assay is described as follows: SPR (Biacore T200, 37C), Ab captured on protein A/G; pH 5.8, 3 uM Ca. How it is done: (§1) Each antibody was captured onto the sensor surface by protein A/G. Antibody capture levels were aimed at 200 resonance unit (RU). Serum-derived human C1s (CompTech) or recombinant C1s prepared in EXAMPLE 1 was injected at 50 nM, followed by dissociation. The sensor surface was regenerated in each cycle with 10 mM Glycine-HCl, pH 1.5. […] The ratio of KD 5.8+ to KD 7.4+(“KD 5+/7+”) and that of KD 5.8− to KD 7.4+(“KD 5−/7+”) were calculated. When the KD 5+/7+ or KD 5−/7+ of a variant is larger than that of the parent antibody IPN009VH2-SG4GK/IPN009VK3-SK1, that variant is considered to be “pH”- or “pH and Ca”-dependent, respectively. When binding response in 5(+) buffer and/or in 5(−) buffer of a variant is much lower than that of IPN09VH2/IPN009VK3, that variant is also considered as “pH”- and/or “pH and Ca”-dependent. Therefore, such mutations are effective to generate “pH”- and/or “pH and Ca”-dependent antibody. To further enhance “pH” and/or “pH and Ca” dependency, a combination of histidine mutations was conducted. Antibodies with combinations of histidine mutations were evaluated using Biacore by the method described above.
(§2) C1_1IPN92H0033 (SEQ ID NO: 17)-SG4GK/IPN93L0024 (SEQ ID NO: 18)-SK1 (IPN92H0033/IPN93L0024) was selected for further optimization. Histidine, Lysine, Arginine, aspartic acid, glutamic acid, and glutamine scanning was conducted for CDRs and certain positions of FRs of IPN92H0033/IPN93L0024. Variants with a mutation were generated and purified, and evaluated using Biacore by the method mentioned above. All variants were evaluated using Biacore as mentioned above. Mutations that improved “pH” and/or “pH and Ca” dependency were selected for the combination.

For assay [2], the target named is T1, human C1s. Nature of the assay: SPR; KD at pH 5.8 (3 uM Ca) over KD at pH 7.4 (1.2 mM Ca). Here is the method:
as §1, §2
On the technique in general: Surface plasmon resonance follows binding to a sensor surface in real time, without labels.

Assay [3] has as its target T1, human C1s. Nature of the assay: SPR; KD at pH 5.8 (1.2 mM Ca) over KD at pH 7.4 (1.2 mM Ca). Here is the method: as §1, §2
Assay [4] has as its target T1, human C1s. Nature of the assay: SPR (Biacore T200, 37C), Ab captured on protein A/G; pH 5.8, 1.2 mM Ca. Here is the method:
as §1, §2

B1: C1_IPN92H0232-SG4GK/IPN93L0024-SK1 (antibody, human IgG4 S228P, kappa, name in Kabat numbering, V domains shown)
VH: EVMLVESGGGLVKPGGSLRLSCAASGFTFSNYAMSWVRQAPGKGLEWVATISSGGSHTYYLDSVKGRFTISRDNSKDTLYLQMNSLRAEDTALYYCARLFTRHAMDYWGQGTLVTVSS
VL: QIVLTQSPATLSLSPGERATLSCTASSSVSSSYLHWYQQKPGKAPKLWIYSTSNLASGVPSRFSGSGSGTDYTLTISSLQPEDFATYYCHQYYRLHPITFGQGTKLEIKR
notes: Substitutions from IPN009VH2, Kabat numbering; also called IPN92H0232/IPN93L0024
B1: in the assay with human C1s [1], the Kd amounted to 5.19 nM, the koff stood at 0.0173 s⁻¹ and the kon is 3.23e+06 M⁻¹ s⁻¹. The “KD 5(-)/7(+)” value in the assay with human C1s [2] is 3.46. Moreover, the “KD 5(+)/7(+)” value in the assay with human C1s [3] was 5.7. Besides, in the assay with human C1s [4], the Kd was 8.49 nM, the koff is 0.00485 s⁻¹ and the kon came out at 570000 M⁻¹ s⁻¹.

B2: C1_IPN92H0253-SG4GK/IPN93L0024-SK1 (antibody, human IgG4 S228P, kappa, name in Kabat numbering, V domains shown)
VH: EVMLVESGGGLVKPGGSLRLSCAASGFTFSNYAMSWVRQAPGKGLEWVATISSGGSHTYYLDSVKGRFTISRDNSKDTLYLQMNSLRAEDTALYYCARLFTGHAMKYWGQGTLVTVSS
VL: QIVLTQSPATLSLSPGERATLSCTASSSVSSSYLHWYQQKPGKAPKLWIYSTSNLASGVPSRFSGSGSGTDYTLTISSLQPEDFATYYCHQYYRLHPITFGQGTKLEIKR
notes: Substitutions from IPN009VH2, Kabat numbering; also called IPN92H0253/IPN93L0024
Consider B2, for which, in the assay with human C1s [1], the Kd is 25.4 nM, the koff was 0.0147 s⁻¹ and the kon amounted to 578000 M⁻¹ s⁻¹. The “KD 5(-)/7(+)” value in the assay with human C1s [2] came out at 210. For the same molecule, the “KD 5(+)/7(+)” value in the assay with human C1s [3] stood at 12.6. For the same molecule, in the assay with human C1s [4], the Kd stood at 1.52 nM, the koff came out at 0.000717 s⁻¹ and the kon turned out to be 471000 M⁻¹ s⁻¹.

B3: C1_IPN92H0261-SG4GK/IPN93L0091-SK1 (antibody, human IgG4 S228P, kappa, name in Kabat numbering, V domains shown)
VH: EVMLVESGGGLVKPGGSLRLSCAASGFTFSNYAMSWVRQAPGKGLEWVATISSGGSHTYELDSVKGRFTISRDNSKDTLYLQMNSLRAEDTALYYCARLFTKHAMDYWGQGTLVTVSS
VL: QIVLTQSPATLSLSPGERATLSCTASSSVSSSRLHWYQQKPGKAPKLWIYSTSNLASGVPSRFSGSGSGTDYTLTISSLQPEDFATYYCHQYYRLHPITFGQGTKLEIKR
notes: Substitutions from IPN009VH2 / IPN009VK3, Kabat numbering; also called IPN92H0261/IPN93L0091
B3: in the assay with human C1s [1], the dissociation constant (Kd) is 12.1 nM, the koff amounted to 0.00736 s⁻¹ and the kon is 606000 M⁻¹ s⁻¹. For the same molecule, the “KD 5(-)/7(+)” value with human C1s [2] stood at 12.3. Also, the “KD 5(+)/7(+)” value in the assay with human C1s [3] is 16.3. For the same molecule, in the assay with human C1s [4], the Kd was found to be 16.1 nM, the koff worked out at 0.00533 s⁻¹ and the kon came to 332000 M⁻¹ s⁻¹.

B4: C1_IPN92H0281-SG4GK/IPN93L0024-SK1 (antibody, human IgG4 S228P, kappa, name in Kabat numbering)
heavy: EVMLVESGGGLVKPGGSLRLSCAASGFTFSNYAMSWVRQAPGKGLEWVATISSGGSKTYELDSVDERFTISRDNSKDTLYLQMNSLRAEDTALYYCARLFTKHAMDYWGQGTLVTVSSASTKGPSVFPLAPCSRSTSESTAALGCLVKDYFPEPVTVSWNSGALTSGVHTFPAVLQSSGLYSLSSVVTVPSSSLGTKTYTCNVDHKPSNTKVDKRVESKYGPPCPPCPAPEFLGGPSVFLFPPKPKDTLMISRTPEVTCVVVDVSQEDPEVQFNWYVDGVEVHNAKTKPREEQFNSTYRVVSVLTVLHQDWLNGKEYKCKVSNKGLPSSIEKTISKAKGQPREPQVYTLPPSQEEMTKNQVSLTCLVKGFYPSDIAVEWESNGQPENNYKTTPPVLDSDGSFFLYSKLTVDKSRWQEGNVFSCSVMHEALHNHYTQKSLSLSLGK
light: QIVLTQSPATLSLSPGERATLSCTASSSVSSSYLHWYQQKPGKAPKLWIYSTSNLASGVPSRFSGSGSGTDYTLTISSLQPEDFATYYCHQYYRLHPITFGQGTKLEIKRTVAAPSVFIFPPSDEQLKSGTASVVCLLNNFYPREAKVQWKVDNALQSGNSQESVTEQDSKDSTYSLSSTLTLSKADYEKHKVYACEVTHQGLSSPVTKSFNRGEC
notes: Substitutions from IPN009VH2, Kabat numbering; also called IPN92H0281/IPN93L0024
For the molecule B4, in the assay with human C1s [1], the Kd stood at 4.98 nM, the koff was found to be 0.003 s⁻¹ and the kon amounted to 602000 M⁻¹ s⁻¹. In addition, in the assay with human C1s [2], the “KD 5(-)/7(+)” value came out at 1.98. Moreover, the “KD 5(+)/7(+)” value with human C1s [3] is 9.4. In the assay with human C1s [4], the Kd was 23.6 nM, the koff is 0.024 s⁻¹ and the on-rate constant (kon) turned out to be 1.02e+06 M⁻¹ s⁻¹.

B5: C1_IPN92H0279-SG4GK/IPN93L0091-SK1 (antibody, human IgG4 S228P, kappa, name in Kabat numbering, V domains shown)
VH: EVMLVESGGGLVKPGGSLRLSCAASGFTFSNYAMSWVRQAPGKGLEWVATISSGGSHTYELDSVKERFTISRDNSKDTLYLQMNSLRAEDTALYYCARLFTKHAMDYWGQGTLVTVSS
VL: QIVLTQSPATLSLSPGERATLSCTASSSVSSSRLHWYQQKPGKAPKLWIYSTSNLASGVPSRFSGSGSGTDYTLTISSLQPEDFATYYCHQYYRLHPITFGQGTKLEIKR
notes: Substitutions from IPN009VH2 / IPN009VK3, Kabat numbering; also called IPN92H0279/IPN93L0091
In the case of B5, in the assay with human C1s [1], the Kd came to 5.17 nM, the koff came out at 0.00611 s⁻¹ and the kon came out at 1.18e+06 M⁻¹ s⁻¹. Also, the “KD 5(-)/7(+)” value in the assay with human C1s [2] came to 7.54. Besides, the “KD 5(+)/7(+)” value in the assay with human C1s [3] was 29.2. In the assay with human C1s [4], the dissociation constant Kd worked out at 20 nM, the koff came to 0.00684 s⁻¹ and the kon turned out to be 342000 M⁻¹ s⁻¹.
